Source: the RNAGym collection of RNA variant scans (doi:10.1101/gr.219683.116)

B1: mRNA-splicing (parent)
chain: AGUUGCUGCUGGGAGCUCCAGCACAGUGAAAUGGACAGAAGGGCAGAGCAA

Variants of: B1
Test: exon inclusion enrichment index; higher = more inclusion; WT1 exon 5 minigene, HEK293

Variant	exon inclusion enrichment index
G5A C6G U7G C9A C16A U17A	0.00207
G5A C6G U7G C9A G15C C16U	0.000839
G5A C6G U7G C9A G15C C16A	0.00139
G5A C6G U7G C9A G15C C16G	0.004
G5A C6G U7G C9A G38U A39G	0.00105
G5A C6G U7G C9A G38U A39U	0.000926
G5A C6G U7G C9A G38U A39C	0.000723
G5A C6G U7G C9A C19G A20G	0.00172
G5A C6G U7G C9A C19G A20C	0.00232
G5A C6G U7G C9A C19G A20U	0.00167
G5A C6G U7G C9A G15C	0.00583
G5A C6G U7G C9A G15U	0.000857
G5A C6G U7G C9A G15A	0.00165
G5A C6G U7G C9A G15A C16A	0.000736
G5A C6G U7G C9A G15A C16U	0.000755
G5A C6G U7G C9A G15A C16G	0.00097
G5A C6G U7G C9A G12A G13U	0.00417
G5A C6G U7G C9A G12A G13C	0.0057
G5A C6G U7G C9A G12A G13A	0.00149
G5A C6G U7G C9A C22A A23G	0.000928
G5A C6G U7G C9A C22A A23U	0.00131

Variant	exon inclusion enrichment index
G5A C6G U7G C9A C22A A23C	0.0031
G5A C6G U7G C9A C22G	0.00114
G5A C6G U7G C9A C22U	0.000826
G5A C6G U7G C9A C22A	0.00351
G5A C6G U7G C9A C16G U17G	0.0104
G5A C6G U7G C9A C16G U17A	0.00122
G5A C6G U7G C9A C16G U17C	0.00106
G5A C6G U7G C9A A45G	0.00308
G5A C6G U7G C9A A45C	0.00288
G5A C6G U7G C9A A45U	0.00141
G5A C6G U7G C9A U17A C18G	0.00136
G5A C6G U7G C9A U17A C18A	0.00127
G5A C6G U7G C9A U17A C18U	0.00863
G5A C6G U7G C9A A40U G41C	0.0209
G5A C6G U7G C9A A40U G41U	0.000481
G5A C6G U7G C9A A40U G41A	0.000658
G5A C6G U7G C9A G28C A29C	0.00678
G5A C6G U7G C9A G28C A29U	0.00174
G5A C6G U7G C9A G28C A29G	0.0115
G5A C6G U7G C9A G42A	0.025
G5A C6G U7G C9A G42C	0.0041

Variant	exon inclusion enrichment index
G5A C6G U7G C9A G42U	0.00622
G5A C6G U7G C9A G38U	0.000717
G5A C6G U7G C9A G38C	0.000603
G5A C6G U7G C9A G38A	0.000584
G5A C6G U7G C9A A37U	0.00604
G5A C6G U7G C9A A37G	0.00135
G5A C6G U7G C9A G34U A35U	0.00101
G5A C6G U7G C9A G34U A35C	0.000948
G5A C6G U7G C9A G34U A35G	0.00131
G5A C6G U7G C9A G41U G42C	0.00698
G5A C6G U7G C9A G41U G42A	0.000614
G5A C6G U7G C9A G41U G42U	0.00223
G5A C6G U7G C9A G26C	0.00298
G5A C6G U7G C9A G26A	0.00477
G5A C6G U7G C9A G26U	0.00112
G5A C6G U7G C9A G28U A29C	0.000797
G5A C6G U7G C9A G28U A29G	0.00238
G5A C6G U7G C9A G28U A29U	0.000755
G5A C6G U7G C9A C16U U17C	0.000766
G5A C6G U7G C9A C16U U17A	0.00236
G5A C6G U7G C9A C16U U17G	0.0132

Variant	exon inclusion enrichment index
G5A C6G U7G C9A C22G A23U	0.000928
G5A C6G U7G C9A C22G A23C	0.000809
G5A C6G U7G C9A C22G A23G	0.00134
G5A C6G U7G C9A G21U	0.00149
G5A C6G U7G C9A G21C	0.00079
G5A C6G U7G C9A G21A	0.00299
G5A C6G U7G C9A G43A C44G	0.0259
G5A C6G U7G C9A G43A C44A	0.0069
G5A C6G U7G C9A G43A C44U	0.00188
G5A C6G U7G C9A C36U	0.00174
G5A C6G U7G C9A C36G	0.000918
G5A C6G U7G C9A C36A	0.000983
G5A C6G U7G C9A G46C A47U	0.00364
G5A C6G U7G C9A G46C A47G	0.00214
G5A C6G U7G C9A G46C A47C	0.00161
G5A C6G U7G C9A G38C A39G	0.00244
G5A C6G U7G C9A G38C A39U	0.000965
G5A C6G U7G C9A G38C A39C	0.00466
G5A C6G U7G C9A C24A A25C	0.0413
G5A C6G U7G C9A C24A A25U	0.00166
G5A C6G U7G C9A C24A A25G	0.0011
